We go through 1 molecule from publication doi:10.1101/2023.03.08.531793 (bioRxiv, 2023).

In the assay the target is T1, HIS-ABI3 fusion protein (Arabidopsis thaliana, UniProt Q01593 1-720).
T1 sequence (looked up): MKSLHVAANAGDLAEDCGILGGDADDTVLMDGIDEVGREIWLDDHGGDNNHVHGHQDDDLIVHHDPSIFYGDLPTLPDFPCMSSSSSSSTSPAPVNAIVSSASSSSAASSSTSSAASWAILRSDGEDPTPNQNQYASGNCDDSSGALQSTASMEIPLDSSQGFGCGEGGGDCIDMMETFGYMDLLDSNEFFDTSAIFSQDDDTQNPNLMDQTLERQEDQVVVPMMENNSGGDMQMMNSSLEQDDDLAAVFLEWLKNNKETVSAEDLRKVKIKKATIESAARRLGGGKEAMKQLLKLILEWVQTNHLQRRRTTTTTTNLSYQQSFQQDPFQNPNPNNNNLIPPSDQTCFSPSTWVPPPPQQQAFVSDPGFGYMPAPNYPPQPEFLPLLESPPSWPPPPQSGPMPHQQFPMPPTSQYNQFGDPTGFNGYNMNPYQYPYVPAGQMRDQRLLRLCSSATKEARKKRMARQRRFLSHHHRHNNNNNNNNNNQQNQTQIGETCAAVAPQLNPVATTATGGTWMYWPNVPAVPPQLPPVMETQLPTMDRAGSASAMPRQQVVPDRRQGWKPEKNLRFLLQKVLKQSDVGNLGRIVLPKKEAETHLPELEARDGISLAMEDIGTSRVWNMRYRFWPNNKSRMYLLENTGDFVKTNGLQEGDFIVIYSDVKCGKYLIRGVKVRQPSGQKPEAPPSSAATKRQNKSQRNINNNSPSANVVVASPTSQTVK
Briefly: pull-down.

B1: GST-ERF1 fusion protein (natural protein)
chain: not shown
For B1, the binding result was “binds”.
